Blank lines part the entries; values can stand above or below the binder they belong to.
Legend:
soluble human ILT2-ECD [1] = target: T1, soluble human ILT2-ECD (human, UniProt Q8NHL6 24-461); assay: Biacore competition: antibody titrated against 20 nM ILT2-ECD, mixture injected over biotinylated HLA-A*1101 on a NeutrAvidin chip
T1 construct: also called LILRB1 extracellular domain
Method: (§1) As part of the characterization process, the ability of exemplary antibodies to inhibit or block the interaction of ILT2 or ILT4 with their natural ligands was evaluated in competition experiments using a Biacore system. As described herein, the natural ligands of ILT2 and ILT4 include, but are not limited to, HLA class I molecules, including HLA-A, HLA-B, HLA-C, HLA-E, and HLA-G. Biotinylated HLA-A*1101 was captured in high amounts on a NeutrAvidin chip surface. Antigen-antibody complexes were prepared with (i) ILT2-ECD and anti-ILT2 antibody 27F9, anti-ILT4 antibody 48A5, or anti-ILT2/ILT4 antibody Hz73D1.v1 and (ii) ILT4-ECD and anti-ILT2 antibody 27F9, anti-ILT4 antibody 48A5, or anti-ILT2/ILT4 antibody Hz73D1.v1. The antibody concentration of each antibody was titrated from 0.09-100 nM and the concentration of human ILT2-ECD or ILT4-ECD was kept constant at 20 nM. The complexes were mixed in a 96-well microplate and each was injected onto the HLA-A-coated chip surface. The measured signal (response unit, RU) was plotted against the antibody concentration.

[2] = target: T2, human ILT2 chimeric reporter receptor (ILT2 extracellular domain fused to PILRbeta … (human, UniProt Q8NHL6 24-461)); assay: reporter cell assay (not a direct binding assay): human ILT2 reporter cells co-cultured with Raji cells, %GFP+ by FACS
T2 construct: On the surface of NFAT-GFP reporter cells; associates with DAP12; also called ILT2 reporter cells; Human ILT2 reporter construct; not shown: The PILRbeta transmembrane/intracellular domain
T2 sequence (Q8NHL6 24-461 limits assumed, change not shown): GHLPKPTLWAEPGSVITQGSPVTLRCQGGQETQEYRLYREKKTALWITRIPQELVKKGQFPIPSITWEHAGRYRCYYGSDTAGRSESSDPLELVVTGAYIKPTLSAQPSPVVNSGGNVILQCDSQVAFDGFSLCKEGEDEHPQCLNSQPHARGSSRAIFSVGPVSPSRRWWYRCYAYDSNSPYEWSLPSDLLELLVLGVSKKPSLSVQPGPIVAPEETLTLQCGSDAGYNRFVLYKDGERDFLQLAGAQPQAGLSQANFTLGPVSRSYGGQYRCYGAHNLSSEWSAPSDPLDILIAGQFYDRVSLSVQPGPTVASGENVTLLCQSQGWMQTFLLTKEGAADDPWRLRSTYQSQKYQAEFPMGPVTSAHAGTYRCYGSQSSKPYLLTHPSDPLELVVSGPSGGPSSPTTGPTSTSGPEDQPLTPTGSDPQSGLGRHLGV
Method: The ability of anti-ILT2/ILT4 antibodies to inhibit the interaction between ILT2 and/or ILT4 and MHC I molecules was evaluated using a reporter cell system. […] In this chimeric receptor system, the extracellular domain of the receptor of interest (e.g., ILT2 or ILT4) is fused with the transmembrane/intracellular domain of PILRβ that associates with the adaptor protein DAP12. When the chimeric receptor (e.g., ILT2 or ILT-4) is activated by binding to a ligand (e.g., MHC I molecule), DAP12 becomes phosphorylated and activates an NFAT-responsive promoter which drives GFP expression (see, e.g., Deng et al., 2014, Blood, 124:924-935).
Reporter cells were washed after staining and resuspended at 1×10⁶ cells/ml in X-VIVO™ 15 media (Lonza). […] For assays with Raji cells: anti-ILT2 antibody 27F9, anti-ILT4 antibody 48A5, anti-ILT2/ILT4 antibody 73D1 and Hz73D1.v1, and a control antibody were serially diluted and 50 μl was added to each well of a 96-well flat-bottom cell culture plate. […] The plates were incubated overnight at 37° C. The next day, reporter cells were assayed for GFP expression by FACS.

soluble human ILT4-ECD [3] = target: T3, soluble human ILT4-ECD (human, UniProt Q8N423 22-460); assay: Biacore competition: antibody titrated against 20 nM ILT4-ECD, mixture injected over biotinylated HLA-A*1101 on a NeutrAvidin chip; blocked ligand HLA-A*1101
T3 construct: also called LILRB2 extracellular domain
T3 sequence (Q8N423 other isoform, or with tags, fused parts or gaps): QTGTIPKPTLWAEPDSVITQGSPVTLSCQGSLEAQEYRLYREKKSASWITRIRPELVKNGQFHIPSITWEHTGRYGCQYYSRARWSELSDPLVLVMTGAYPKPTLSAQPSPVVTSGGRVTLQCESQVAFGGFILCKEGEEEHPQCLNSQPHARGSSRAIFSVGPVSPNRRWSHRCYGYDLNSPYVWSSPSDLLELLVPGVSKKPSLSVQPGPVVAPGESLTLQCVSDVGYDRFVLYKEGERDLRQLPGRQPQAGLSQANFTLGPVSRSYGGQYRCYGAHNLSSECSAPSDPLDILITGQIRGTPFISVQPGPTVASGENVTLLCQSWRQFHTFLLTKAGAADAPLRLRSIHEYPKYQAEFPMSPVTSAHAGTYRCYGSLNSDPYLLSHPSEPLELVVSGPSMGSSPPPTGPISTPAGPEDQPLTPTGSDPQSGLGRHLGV
Method: as §1

human ILT4 on cells [4] = target: T4, human ILT4 on cells (human, UniProt Q8N423 22-597); assay: flow cytometry, fluorescently labelled antibody on immune cell subsets of PBMC / red-cell-depleted whole blood
T4 construct: also called LILRB2; human ILT4 expressed on 293T cells
T4 sequence (Q8N423 other isoform, or with tags, fused parts or gaps): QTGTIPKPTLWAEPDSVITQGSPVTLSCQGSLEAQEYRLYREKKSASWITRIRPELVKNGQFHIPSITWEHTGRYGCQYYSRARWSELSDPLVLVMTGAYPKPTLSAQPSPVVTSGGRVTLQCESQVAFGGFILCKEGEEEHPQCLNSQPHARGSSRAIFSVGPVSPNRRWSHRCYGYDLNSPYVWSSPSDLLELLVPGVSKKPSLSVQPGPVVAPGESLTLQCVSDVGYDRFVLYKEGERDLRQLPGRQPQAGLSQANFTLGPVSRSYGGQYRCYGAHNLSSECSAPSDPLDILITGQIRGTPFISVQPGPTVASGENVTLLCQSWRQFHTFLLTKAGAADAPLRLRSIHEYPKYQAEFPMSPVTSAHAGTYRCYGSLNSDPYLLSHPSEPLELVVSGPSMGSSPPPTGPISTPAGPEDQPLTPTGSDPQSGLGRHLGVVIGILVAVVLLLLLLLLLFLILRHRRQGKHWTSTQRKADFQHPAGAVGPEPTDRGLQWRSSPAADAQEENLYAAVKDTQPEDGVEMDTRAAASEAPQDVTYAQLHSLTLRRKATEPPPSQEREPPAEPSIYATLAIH
Method: (§2) Flow cytometry analysis of blood immune cells was performed on human and cyno PBMC and whole blood. PBMC were prepared from a leukopak (Allcells Inc.) by centrifugation through ficoll, washing with PBS and freezing in cryopreservation buffer in liquid nitrogen until use. Whole blood (Allcells Inc.) was obtained fresh and red blood cells (RBC) depleted using ammonium chloride RBC lysing solution (Biolegend). PBMC or whole blood samples were stained with a fluorescently labeled antibody panel to distinguish various immune subsets (monocytes, B cells, NK cells, CD4+ and CD8+ T cells, neutrophils and eosinophils). Samples were further stained with fluorescently labeled isotype, 27F9 (ILT2 specific), 48A5 (ILT4 specific), 73D1, and Hz73D1.v1. The number of ILT2 and ILT4 molecules per cell of each immune subset was estimated by incubation with Quantum Simply Cellular microspheres followed by flow cytometry analysis.

human ILT2 on cells [5] = target: T5, human ILT2 on cells (human, UniProt Q8NHL6 24-650); assay: as above
T5 construct: also called LILRB1; human ILT2 expressed on 293T cells
T5 sequence (Q8NHL6 24-650): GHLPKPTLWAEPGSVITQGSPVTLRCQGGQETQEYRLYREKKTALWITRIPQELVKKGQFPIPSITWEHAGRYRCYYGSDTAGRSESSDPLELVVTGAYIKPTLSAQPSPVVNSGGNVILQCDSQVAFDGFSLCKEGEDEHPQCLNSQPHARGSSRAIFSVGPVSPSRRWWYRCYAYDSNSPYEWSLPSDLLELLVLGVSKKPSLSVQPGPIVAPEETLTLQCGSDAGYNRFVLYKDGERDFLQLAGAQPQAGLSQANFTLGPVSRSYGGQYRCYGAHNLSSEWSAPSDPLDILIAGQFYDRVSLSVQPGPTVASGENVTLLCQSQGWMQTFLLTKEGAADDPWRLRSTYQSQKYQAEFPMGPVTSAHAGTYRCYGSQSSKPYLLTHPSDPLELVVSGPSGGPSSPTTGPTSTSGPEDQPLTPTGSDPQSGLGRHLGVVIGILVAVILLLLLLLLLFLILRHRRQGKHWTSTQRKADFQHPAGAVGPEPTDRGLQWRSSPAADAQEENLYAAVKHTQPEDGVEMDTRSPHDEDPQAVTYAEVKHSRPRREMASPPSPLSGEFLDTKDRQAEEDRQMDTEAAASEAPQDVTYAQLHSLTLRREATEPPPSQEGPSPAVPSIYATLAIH
Method: as §2

Human ILT4-Fc = Human ILT4-Fc (human, UniProt Q8N423 22-460); assay: SPR (Biacore) competition: blocking of human ILT4-Fc binding to HLA-A, 25 C
Method: (§3) In addition to the reporter cell system, the inhibitory activity of anti-ILT2/ILT4 antibodies towards the interaction between ILT2 and MHC I molecules, and the interaction between ILT4 and MHC I molecules was evaluated using the Biacore system. Human ILT2-Fc and ILT4-Fc were used as target receptors and their interaction with an exemplary MHC-I molecule (HLA-A) was assayed in the presence or absence of an exemplary anti-ILT2/ILT4 antibody Hz73D1.v1 at 25° C. Anti-human ILT2 (clone 27F9) or ILT4 (clone 48A5) antibodies were used as tool reagents to dissect ILT2- and ILT4-specific blocking activities. Anti-IL2/ILT4 antibodies produced a dose-dependent reduction in the interaction between ILT2 and HLA-A, as well as between ILT4 and HLA-A. IC50s of the antibodies tested are shown in Table 16.

soluble human ILT4-ECD [6] = target: T3, soluble human ILT4-ECD; assay: SPR (Biacore), antibody captured on Protein A chip, soluble ILT-ECD injected (1.6-200 nM), 25 C
Method: (§4) The binding affinities of anti-ILT2 and anti-ILT4 antibodies were measured using a Biacore system (GE Healthcare LifeSciences). Equilibrium dissociation constant (KD) measurements were carried out with purified antibodies to evaluate their binding to human ILT2, human ILT4, and rhesus ILT2. Briefly, purified anti-ILT2 antibody 27F9, anti-ILT4 antibodies 47C8 and 48A5, and anti-ILT2/ILT4 antibodies 47H6, 51A1, 64A12, 73C4, and 73D1 were captured on a Sensor Chip Protein A (GE HealthCare). The surface of the Biacore Sensor Chip Protein A consists of a carboxymethylated dextran matrix with a recombinant Protein A variant covalently attached. Soluble human ILT2-ECD, human ILT4-ECD, or rhesus ILT2-ECD were injected at a flow rate of 30 μL/min at 25° C. The ILT2 or ILT4 proteins were used at concentrations ranging from 1.6-200 nM in PBS-P buffer with 2 fold dilutions. Kinetic data were collected over time and fit using the simultaneous global fit equation to yield affinity constants (KD values) for each antibody.

human ILT4 on cells [7] = target: T4, human ILT4 on cells; assay: cell-based or functional assay
human ILT4 on cells [8] = target: T4, human ILT4 on cells; assay: cell-based or functional assay; remark: listed apart in the source
human ILT2 on cells [9] = target: T5, human ILT2 on cells; assay: cell-based or functional assay
soluble human ILT2-ECD [10] = target: T1, soluble human ILT2-ECD; assay: SPR (Biacore) as described in Example 3
Method: as §4
(§5) The binding affinities of the humanized antibodies to human ILT2 and human ILT4 were measured using a Biacore system as described herein. The binding affinities of antibodies Hz47H6.v2, Hz64A12, and Hz73D1.v1 are shown in Table 11 as compared with the parental antibodies.

soluble human ILT4-ECD [11] = target: T3, soluble human ILT4-ECD; assay: SPR (Biacore) as described in Example 3
Method: as §4, §5

soluble human ILT2-ECD [12] = target: T1, soluble human ILT2-ECD; assay: SPR (Biacore), antibody captured on Protein A chip, ILT protein injected, 25 C
soluble human ILT4-ECD [13] = target: T3, soluble human ILT4-ECD; assay: as above
soluble human ILT2-ECD [14] = target: T1, soluble human ILT2-ECD; assay: Biacore competition: antibody titrated against 20 nM ILT2-ECD, mixture injected over biotinylated HLA-A*1101 on a NeutrAvidin chip; blocked ligand HLA-A*1101
Method: as §1

Human ILT2-Fc = Human ILT2-Fc (human, UniProt Q8NHL6 24-461, limits assumed); assay: SPR (Biacore) competition: blocking of human ILT2-Fc binding to HLA-A, 25 C
Sequence of Human ILT2-Fc (Q8NHL6 24-461 limits assumed): as the sequence (Q8NHL6 24-461 limits assumed, change not shown) above
Method: as §3

[15] = target: T6, cynomolgus monkey ILT2 on cells (cynomolgus monkey); assay: flow cytometry, fluorescently labelled antibody on CD14+ monocytes of cyno PBMC (2 donors), geometric MFI
T6 construct: also called cyno ILT2; ILT2 on cyno CD14+ monocytes
T6 sequence (chain, as listed by the source): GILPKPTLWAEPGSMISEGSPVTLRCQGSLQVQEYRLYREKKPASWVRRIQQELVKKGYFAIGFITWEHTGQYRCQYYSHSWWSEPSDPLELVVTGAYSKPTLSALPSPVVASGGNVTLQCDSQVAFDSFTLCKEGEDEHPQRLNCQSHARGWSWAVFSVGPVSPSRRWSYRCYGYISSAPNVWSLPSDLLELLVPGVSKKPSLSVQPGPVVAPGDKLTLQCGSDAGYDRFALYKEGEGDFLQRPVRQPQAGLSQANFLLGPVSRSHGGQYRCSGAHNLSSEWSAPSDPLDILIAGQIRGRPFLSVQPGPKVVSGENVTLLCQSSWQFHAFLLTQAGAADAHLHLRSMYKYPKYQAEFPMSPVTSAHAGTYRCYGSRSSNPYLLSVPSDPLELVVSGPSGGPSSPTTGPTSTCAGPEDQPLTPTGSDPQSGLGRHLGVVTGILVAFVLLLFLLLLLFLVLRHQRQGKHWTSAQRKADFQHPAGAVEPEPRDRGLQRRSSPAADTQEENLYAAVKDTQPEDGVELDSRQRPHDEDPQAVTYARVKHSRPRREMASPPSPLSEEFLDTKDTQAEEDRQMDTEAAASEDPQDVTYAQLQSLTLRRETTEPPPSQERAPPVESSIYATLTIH
Method: The binding of anti-ILT2/ILT4 antibodies to monocytes was evaluated. The binding of exemplary anti-ILT2/ILT4 antibody 73D1 and the humanized version Hz73D1.v1 to the CD14+ monocyte population of human and cyno PBMC were determined by flow cytometry analysis. Briefly, human or cyno PBMCs (from 2 donors each) were thawed, washed in media (RPMI, 10% FBS, L-glutamine, pen/strep), and resuspended in fresh media. PBMCs were stained with a cocktail of labeled antibodies to differentiate between the different cell types. 1×10⁶ cells/well were stained with fluorescently-labelled 73D1 or Hz73D1.v1 antibody and incubated on ice. The cells were washed with ice-cold reagents and immediately analyzed by flow cytometry. The geometric mean fluorescence intensity for CD14+ monocytes was calculated for each sample. […] For example, the 50% effective concentration (EC₅₀) of Hz73D1.v1 was 8.8 nM with human monocytes and 1.8 nM with cyno monocytes.

T1 sequence (Q8NHL6 24-461): as the sequence (Q8NHL6 24-461 limits assumed, change not shown) above

- binding result (soluble human ILT2-ECD [1]): no binding (tested: about 200 nM)
- IC50 (read off the curve) (soluble human ILT4-ECD [3]): ~20 nM
- binding result (human ILT4 on cells [4]): binds
- binding result (human ILT2 on cells [5]): no binding (tested: not given)
- IC50 (Human ILT4-Fc): 8.4 nM
- Kd (soluble human ILT4-ECD [6]): 0.026 nM
- koff (soluble human ILT4-ECD [6]): 2.1e-05 s⁻¹
- kon (soluble human ILT4-ECD [6]): 810000 M⁻¹ s⁻¹
B1: anti-ILT4 antibody 48A5 (antibody, V domains shown)
VH: QIQLVQSGPELKKPGETVKISCKASGYTFTNYGMNWVKQAPGKGLKWMGWINTYIGEPIYADDFKGRFAFSLETSASTAYLQINNLKNEDMATYFCARRSDYDGYAMDYWGQGTSVTVSS
VL: DIVMSQSPSSLAVSVGERVTMSCKSSQSLLYSGNQKNYLAWYQQKPGQSPKLLIYWASTRESGVPDRFTGSGSGTDFTLTISSVKAEDLAVYYCQQHDSYPTFGGGSRLEIK
notes: Mouse hybridoma antibody; also called clone 48A5; anti-ILT4 (48A5)
- binding result [2]: no binding (tested: Log nM about 1.5 (about 30 nM))

- IC50 (read off the curve) (soluble human ILT4-ECD [3]): ~9 nM
- IC50 (Human ILT4-Fc): 9.4 nM
- EC50 (nM), TNFalpha secretion of tolerized dendritic cells, LPS + Cyclosporine (human ILT4 on cells [7]): 0.2 nM
- EC50 (nM), TNFalpha secretion of tolerized dendritic cells, LPS + IL-6 (human ILT4 on cells [7]): 0.14 nM
- EC50 (nM), TNFalpha secretion of tolerized dendritic cells, LPS + IL-10 (human ILT4 on cells [7]): 1.2 nM
- EC50 (nM), TNFalpha secretion of tolerized dendritic cells, LPS + PGE2 (human ILT4 on cells [7]): 0.44 nM
- EC50 (nM), TNFalpha secretion of tolerized dendritic cells, LPS + Rapamycin (human ILT4 on cells [7]): 0.15 nM
- EC50 (nM), TNFalpha secretion of tolerized dendritic cells, LPS + TGFβ (human ILT4 on cells [7]): 0.1 nM
- EC50 (nM), TNFalpha secretion of tolerized dendritic cells, LPS + VitD3/Dex (human ILT4 on cells [7]): 0.4 nM
- EC50, GM-CSF secretion of LPS-stimulated human PBMC (human ILT4 on cells [8]): 1.5 nM
- EC50, TNFalpha secretion of LPS-stimulated human PBMC (human ILT4 on cells [8]): 0.76 nM
- EC50, NKL cytolytic activity against 721.221-HLA-A*0201 target cells (human ILT2 on cells [9]): 0.13 nM
- EC50, NKL cytolytic activity against 721.221-HLA-G target cells (human ILT2 on cells [9]): 2.4 nM
- percent CD137+ NK cells, ADCC assay with CAL-27 cells and anti-EGFR antibody (human ILT2 on cells [9]): 1.8 fold
- Kd (soluble human ILT2-ECD [10]): 3 nM
- koff (soluble human ILT2-ECD [10]): 0.00025 s⁻¹
- kon (soluble human ILT2-ECD [10]): 85000 M⁻¹ s⁻¹
- Kd (soluble human ILT4-ECD [11]): 0.75 nM
- koff (soluble human ILT4-ECD [11]): 0.00027 s⁻¹
- kon (soluble human ILT4-ECD [11]): 360000 M⁻¹ s⁻¹
- Kd (soluble human ILT2-ECD [12]): 1.03 nM
- koff (soluble human ILT2-ECD [12]): 4.85e-05 s⁻¹
- kon (soluble human ILT2-ECD [12]): 47200 M⁻¹ s⁻¹
- Kd (soluble human ILT4-ECD [13]): 0.205 nM
- koff (soluble human ILT4-ECD [13]): 4.6e-05 s⁻¹
- kon (soluble human ILT4-ECD [13]): 220000 M⁻¹ s⁻¹
- IC50 (read off the curve) (soluble human ILT2-ECD [14]): ~9 nM
- IC50 (Human ILT2-Fc): 10 nM
- binding result [15]: binds
B2: humanized anti-ILT2/ILT4 antibody Hz73D1.v1 (antibody, human IgG1, kappa, N297G, V domains shown)
VH: QVQLVQSGAEVKKPGASVKVSCKASGYTFTDYYINWVRQAPGQGLEWMGNVNPNDGGTTYNQKFKGRVTMTTDTSTSTAYMELRSLRSDDTAVYYCARREIYFYGTIYYYAMDYWGQGTLVTVSS
VL: DIQLTQSPSFLSASVGDRVTITCRASESVDYYGNSFMYWYQQKPGKAPKLLIYFASNLESGVPSRFSGSGSGTEFTLTISSLQPEDFATYYCQQNNEDPWTFGGGTKVEIKR
notes: Human IgG1 constant region with G at position 297, human kappa; also called Hz73D1.vi

— patent US20240025997A1 (NGM BIOPHARMACEUTICALS, published 2024)
